{"source": "paper PMC13233820", "about": "“Recruitment of Mre11 to recombination sites during meiosis” (Nature Communications, 2026)", "key": {"[1]": {"tested_on": "supercoiled pUC19 plasmid DNA", "assay": "In vitro condensation assay of Mre11 (fluorescence microscopy)", "assay_type": "biochemical", "conditions": "eGFP-tagged truncations with plasmid DNA", "description": "Fig. 1 Mre11 and the MRX complex assemble DNA-dependent condensates in vitro. a, c Effect of the presence of plasmid DNA on condensation of (a) Alexa488-labeled Mre11 (n = 11 and 9 fields of view for reactions without and with DNA, respectively) and (c) eGFP-tagged MRX (n = 11 (- DNA) and 9 ( + DNA)). Experiments were performed without PEG. b, d Effect of DNase I, in the absence of PEG, on (b) Mre11 (n = 9 (no treatment) and 11 (DNase I)) and (d) MRX (n = 9 (no treatment) and 11 (DNase I)) condensates. Condensates were pre-assembled for 20 min with 5.7 nM pUC19 prior to challenge. Quantification represents total foci intensity (green) in a field of view and total number of foci per 1000 µm^2 (magenta). Foci intensity is normalized to the mean intensity of samples with DNA for (a, c) and untreated samples for (b, d). […] Quantification represents total foci intensity (green) in a field of view (normalized to the mean of + PEG images) and total number of foci per 1000 µm^2 (magenta). […]\nFig. 2 The C-terminal IDR of Mre11 is required for condensation. a AlphaFold2 predicted model of Mre11 (AF-P32829-F1-v4). […] Quantification represents total fluorescence intensity (green) in a field of view and total number of foci per 1000 µm^2 (magenta). […]"}, "[2]": {"tested_on": "pUC19 plasmid substrate", "assay": "Gel shift assay, plasmid DNA binding", "conditions": "1 nM pUC19, 25 mM HEPES-HCl pH 7.5, 100 mM NaCl, 5 mM EDTA, 30 °C 30 min", "description": "Proteins were diluted to their appropriate working concentrations in their respective storage buffers. […] Reactions were assembled at 30 °C for 30 mins and resolved in a 1% agarose (SeaKem LE Agarose, Lonza) at 60 V for 120 mins at 4 °C. Gels were stained with SYBR Gold Nucleic Acid Gel Stain (S11497, Invitrogen) for 40 mins and visualized with Amersham Typhoon biomolecular imager (Cytiva)."}, "[3]": {"tested_on": "Mer2", "assay": "Co-immunoprecipitation of Mer2 and Mre11 from meiotic extracts", "assay_type": "binding, Saccharomyces cerevisiae", "conditions": "Supplementary Fig. 6i", "description": "Meiotic cultures were collected at 4 h after transferring to SPM, washed once in ice-cold 1 × PBS containing 1 mM PMSF, following which, they were transferred to 1.5 ml screw-cap tubes and were either snap frozen in liquid nitrogen or processed directly. […] 900 µL of 0.5 mm zirconium beads were added to the cell pellet, and cells were lyzed in a Precellys bead beater at 7200 rpm for 12 × 15 seconds while chilling the tubes for 2 min on ice between each cycle. Cell extract was collected by poking a hole at the bottom of the tubes while placing the tubes on top of another 1.5 ml tubes and centrifuging at 800 × g for 1 min at 4 °C. Beads were washed with 500 µl of IP buffer and collected in the same tube. Cell lysate was spun again at 800 g for 5 min at 4 °C and supernatant was transferred to 15 mL tubes. Sonication was performed three times in ice in Bioruptor Plus at intensity (M) in a 30 s ON / 30 s OFF cycle for 15 min each time. The lysate was centrifuged at 15.000 g at 4 °C for 10 min and the supernatant (~ 800 µl) was transferred to new 1.5 ml tubes. 80 µL (10%) was collected as Input fraction and snap frozen. 1 µL of mouse monoclonal anti-myc primary antibody was added to each tube, and tubes were rotated overnight at 5 rpm at 4 °C. The following day, Dynabeads Protein G (30 µl per tube) were added to Protein LoBind tubes and washed two times with 1 mL IP buffer containing 1 mM PMSF using DynaMag2. The lysates with the antibody were transferred to the tubes containing Dynabeads and were rotated for 3-4 hours at 5 rpm at 4 °C, following which, the Dynabeads were collected and washed four times with 1 ml IP buffer containing 1 mM PMSF. Finally, 60 µL IP buffer and 20 µL 4 × Lammelli buffer was added to the tubes and incubated for 5 mins at 95 °C while shaking at 1000 rpm. TCA extraction was performed on the input fractions by adding 8 µL 100 % TCA (final 10 % TCA) and incubating on ice for 30 mins. Precipitated proteins were solubilized in 40 µL 1 × Laemmli sample buffer incubated for 5 mins at 95 °C. Immunoblotting was performed using the protocol described below."}, "[4]": {"tested_on": "spores of yeast strains", "assay": "Spore viability assay", "assay_type": "cell-based, Saccharomyces cerevisiae", "conditions": "Fig. 7c", "description": "For the spore viability assay, a small patch of the diploid strain was incubated in sporulation media (2% potassium acetate) at 30 °C, 250 rpm for two days. After two days, 1 mL of sporulating culture was centrifuged, and all but 200 µL of supernatant was removed. To digest yeast cells, 2 µL of concentrated sporulation culture was mixed with 100 µL 1 M sorbitol and 1 µL 10 mg/ml zymolyase and incubated at 30 °C for 21 mins. 20 µL of digested cells were dropped on a YPD plate, left to dry for about 10 mins, and were micromanipulated using a tetrad dissector (MSM400, Singer Instruments). At least 20 tetrads were dissected for each assay, and spore viability was assessed by calculating the number of viable spores after 2 days of incubation at 30 °C."}}}
{"molecule": "Mre11-IDR: Mre11 disordered region alone (524-677) (protein, UniProt P32829 524-677, looked up, fragment) NSVRPTPPKENDETNFAFNGNGLDSFRSSNREVRTGSPDITQSHVDNESRITHISQAESSKPTSKPKRVRTATKKKIPAFSDSTVISDAENELGDNNDAQDDVDIDENDIIMVSTDEEDASYGLLNGRKTKTKTRPAASTKTASRRGKGRASRT", "values": [{"measurement": "Condensation of Mre11 truncations (in words)", "setting": "[1]", "result": "failed to form condensates"}, {"measurement": "DNA-binding activity (in words)", "setting": "[2]", "result": "reduced DNA binding as compared to the wild type or Mre11^ΔIDR"}]}
{"molecule": "Mre11-ΔC15: Mre11 lacking the C-terminal 15-residue α-helix (protein, left off: Gal4 activation domain (from the vector pGAD-C1), end not stated, kept, Mre11 lacking the C-terminal 15-residue α-helix) MDYPDPDTIRILITTDNHVGYNENDPITGDDSWKTFHEVMMLAKNNNVDMVVQSGDLFHVNKPSKKSLYQVLKTLRLCCMGDKPCELELLSDPSQVFHYDEFTNVNYEDPNFNISIPVFGISGNHDDASGDSLLCPMDILHATGLINHFGKVIESDKIKVVPLLFQKGSTKLALYGLAAVRDERLFRTFKDGGVTFEVPTMREGEWFNLMCVHQNHTGHTNTAFLPEQFLPDFLDMVIWGHEHECIPNLVHNPIKNFDVLQPGSSVATSLCEAEAQPKYVFILDIKYGEAPKMTPIPLETIRTFKMKSISLQDVPHLRPHDKDATSKYLIEQVEEMIRDANEETKQKLADDGEGDMVAELPKPLIRLRVDYSAPSNTQSPIDYQVENPRRFSNRFVGRVANGNNVVQFYKKRSPVTRSKKSGINGTSISDRDVEKLFSESGGELEVQTLVNDLLNKMQLSLLPEVGLNEAVKKFVDKDEKTALKEFISHEISNEVGILSTNEEFLRTDDAEEMKALIKQVKRANSVRPTPPKENDETNFAFNGNGLDSFRSSNREVRTGSPDITQSHVDNESRITHISQAESSKPTSKPKRVRTATKKKIPAFSDSTVISDAENELGDNNDAQDDVDIDENDIIMVSTDEEDASYGLLNGRKTKTKTRPAASTKTASRRGKGRASRT", "values": [{"measurement": "Normalized to WT Mer2 IP", "setting": "[3]; Experiment 1", "result": 68.56}]}
{"molecule": "Mre11-myc (WT) (protein, UniProt P32829 1-692, looked up, myc tag) Double-strand break repair …: MDYPDPDTIRILITTDNHVGYNENDPITGDDSWKTFHEVMMLAKNNNVDMVVQSGDLFHVNKPSKKSLYQVLKTLRLCCMGDKPCELELLSDPSQVFHYDEFTNVNYEDPNFNISIPVFGISGNHDDASGDSLLCPMDILHATGLINHFGKVIESDKIKVVPLLFQKGSTKLALYGLAAVRDERLFRTFKDGGVTFEVPTMREGEWFNLMCVHQNHTGHTNTAFLPEQFLPDFLDMVIWGHEHECIPNLVHNPIKNFDVLQPGSSVATSLCEAEAQPKYVFILDIKYGEAPKMTPIPLETIRTFKMKSISLQDVPHLRPHDKDATSKYLIEQVEEMIRDANEETKQKLADDGEGDMVAELPKPLIRLRVDYSAPSNTQSPIDYQVENPRRFSNRFVGRVANGNNVVQFYKKRSPVTRSKKSGINGTSISDRDVEKLFSESGGELEVQTLVNDLLNKMQLSLLPEVGLNEAVKKFVDKDEKTALKEFISHEISNEVGILSTNEEFLRTDDAEEMKALIKQVKRANSVRPTPPKENDETNFAFNGNGLDSFRSSNREVRTGSPDITQSHVDNESRITHISQAESSKPTSKPKRVRTATKKKIPAFSDSTVISDAENELGDNNDAQDDVDIDENDIIMVSTDEEDASYGLLNGRKTKTKTRPAASTKTASRRGKGRASRTPKTDILGSLLAKKRK", "values": [{"measurement": "Visible spore colonies", "setting": "[4]; spores placed: 144 (WT), 80 (ΔC15), 88 (SIM), 80 (ΔC15+ SIM)", "result": 140}, {"measurement": "Spore Viability", "setting": "[4]; visible spore colonies of spores placed", "result": 97.22}]}
{"molecule": "Mer2-EQEK (protein, left off: V5, internal (after residue 248), kept) MVARGRTDEISTDVSEANSEHSLMITETSSPFRSIFSHSGKVANAGALEASDKAILAWAGALELESMELRENSDKLIKVLNENSKTLCKSLNKFNQLLEQDAATNGNVKTLIKDLASQIENQLDKVSTAMLSKGDEKKTKSDSSYRQVLVEEISRYNSKITRHVTNKQHETEKSMRCTQEMLFNVGSQLEDVHKVLLSLSKDMHSLQTRQTALEMAFREKADHAYDRPDVSLNGTTLLHDMDEAHDKQRKKSVPPPRMMVTRSMKRRRSSSPTLSTSQNHNSEDNDDASHRLKRAARTIIPWEELRPDTLESEL", "values": [{"measurement": "Normalized to WT Mer2 IP", "setting": "[3]; Experiment 1", "result": 56.73}, {"measurement": "Normalized to WT Mer2 IP", "setting": "[3]; Experiment 2", "result": 70.72}]}
